# Source: the Human Domainome abundance scans (Beltran et al. 2025)
# ± gives the uncertainty stated by the source.
# B1: Far upstream element-binding protein 1, residues 184 to 257; numbered along this chain, Q96AE4 (parent)
# chain: GNAVQEIMIPASKAGLVIGKGGETIKQLQERAGVKMVMIQDGPQNTGADKPLRITGDPYKVQQAKEMVLELIRD
# Variants of: B1
# Assay: abundance fitness (aPCA) (normalised: wild type 0, dead -1); higher = more abundant; growth selection in yeast, the domain comes from the species named
# Conditions: Homo sapiens
row,Variant,abundance fitness
1,N2F,0.043 ± 0.047
2,N2E,0.176 ± 0.037
3,N2V,0.121 ± 0.033
4,N2M,0.201 ± 0.038
5,N2W,-0.028 ± 0.036
6,N2L,0.09 ± 0.033
7,N2D,-0.224 ± 0.047
8,N2C,0.052 ± 0.046
9,N2Y,-0.124 ± 0.053
10,N2T,0.154 ± 0.034
11,N2S,0.128 ± 0.031
12,N2K,0.155 ± 0.034
13,N2I,0.168 ± 0.047
14,N2P,-0.028 ± 0.038
15,N2R,0.032 ± 0.028
16,N2A,0.043 ± 0.033
17,N2Q,0.095 ± 0.04
18,N2H,-0.311 ± 0.058
19,I9F,-0.737 ± 0.066
20,I9Y,-0.891 ± 0.077
21,I9S,-0.913 ± 0.045
22,I9A,-1 ± 0.056
23,I9T,-0.749 ± 0.045
24,I9W,-0.964 ± 0.049

row,Variant,abundance fitness
1,I9P,-0.905 ± 0.055
2,I9Q,-0.768 ± 0.055
3,I9V,0.009 ± 0.029
4,I9M,-0.312 ± 0.039
5,I9N,-0.785 ± 0.065
6,I9L,-0.087 ± 0.029
7,I9H,-0.905 ± 0.088
8,A11T,-0.08 ± 0.035
9,A11K,-0.011 ± 0.037
10,A11V,-0.071 ± 0.03
11,A11R,-0.1 ± 0.027
12,A11Q,-0.078 ± 0.04
13,A11E,-0.098 ± 0.035
14,A11W,-0.17 ± 0.033
15,A11D,-0.014 ± 0.045
16,A11F,-0.13 ± 0.046
17,A11H,-0.133 ± 0.052
18,A11M,-0.094 ± 0.036
19,A11C,-0.034 ± 0.043
20,A11I,-0.096 ± 0.056
21,A11Y,-0.089 ± 0.053
22,A11G,-0.098 ± 0.027
23,A11N,0.021 ± 0.046
24,A11L,-0.092 ± 0.03

row,Variant,abundance fitness
1,A3I,0.255 ± 0.053
2,A3S,0.196 ± 0.032
3,A3Y,0.158 ± 0.057
4,A3M,0.256 ± 0.039
5,A3G,-0.059 ± 0.027
6,A3V,0.011 ± 0.032
7,A3F,0.165 ± 0.053
8,A3R,0.17 ± 0.027
9,A3P,0.109 ± 0.037
10,A3Q,0.133 ± 0.038
11,A3E,0.039 ± 0.036
12,A3L,0.172 ± 0.031
13,A3T,0.235 ± 0.037
14,A3K,0.181 ± 0.039
15,A3N,0.057 ± 0.053
16,A3W,0.116 ± 0.033
17,A3H,-0.044 ± 0.05
18,A14R,0.001 ± 0.028
19,A14C,0.031 ± 0.044
20,A14P,-0.643 ± 0.039
21,A14H,0.034 ± 0.049
22,A14S,-0.049 ± 0.032
23,A14E,-0.014 ± 0.041
24,A14T,0.035 ± 0.035

row,Variant,abundance fitness
1,A14G,-0.193 ± 0.032
2,A14V,-0.017 ± 0.035
3,A14N,-0.061 ± 0.058
4,A14M,0.033 ± 0.043
5,A14K,-0.065 ± 0.047
6,A14I,0.039 ± 0.064
7,A14Q,0.028 ± 0.038
8,A14Y,-0.039 ± 0.052
9,A14D,-0.109 ± 0.05
10,A14L,0.042 ± 0.031
11,A14F,-0.022 ± 0.051
12,G15D,-0.031 ± 0.039
13,G15I,-0.028 ± 0.05
14,G15T,-0.093 ± 0.036
15,G15S,-0.04 ± 0.03
16,G15W,-0.005 ± 0.033
17,G15L,-0.026 ± 0.031
18,G15C,0.127 ± 0.041
19,G15A,-0.126 ± 0.031
20,G15R,-0.041 ± 0.027
21,G15E,0.04 ± 0.036
22,G15Q,-0.031 ± 0.039
23,G15V,-0.026 ± 0.03
24,G15Y,-0.035 ± 0.048

row,Variant,abundance fitness
1,G15P,-0.128 ± 0.034
2,G15M,0.042 ± 0.039
3,G15N,0.011 ± 0.053
4,L16D,-0.053 ± 0.046
5,L16Y,-0.045 ± 0.052
6,L16C,-0.147 ± 0.043
7,L16P,-0.581 ± 0.038
8,L16A,-0.028 ± 0.033
9,L16H,-0.15 ± 0.047
10,L16R,-0.087 ± 0.026
11,L16N,-0.103 ± 0.052
12,L16Q,-0.093 ± 0.036
13,L16M,-0.018 ± 0.038
14,L16G,-0.191 ± 0.029
15,L16W,-0.068 ± 0.033
16,L16F,0.003 ± 0.051
17,L16I,-0.048 ± 0.055
18,L16T,-0.058 ± 0.033
19,L16S,-0.122 ± 0.031
20,L16E,-0.06 ± 0.036
21,L16K,-0.008 ± 0.036
22,S12P,-0.008 ± 0.038
23,S12E,-0.016 ± 0.034
24,S12G,0.002 ± 0.027

row,Variant,abundance fitness
1,S12Y,-0.13 ± 0.049
2,S12H,-0.018 ± 0.054
3,S12Q,-0.077 ± 0.04
4,S12R,-0.025 ± 0.026
5,S12D,0.004 ± 0.043
6,S12W,-0.123 ± 0.034
7,S12L,-0.112 ± 0.031
8,S12K,0.011 ± 0.039
9,S12A,0.012 ± 0.033
10,S12N,0 ± 0.045
11,S12T,0.001 ± 0.036
12,S12M,-0.071 ± 0.04
13,S12F,-0.207 ± 0.062
14,S12C,-0.133 ± 0.044
15,S12V,-0.059 ± 0.033
16,S12I,-0.032 ± 0.052
17,G19P,-0.629 ± 0.047
18,G19I,-0.931 ± 0.11
19,G19D,-0.204 ± 0.046
20,G19L,-0.598 ± 0.039
21,G19F,-0.519 ± 0.069
22,G19A,-0.339 ± 0.033
23,G19M,-0.551 ± 0.053
24,G19E,-0.297 ± 0.036

row,Variant,abundance fitness
1,G19R,-0.438 ± 0.03
2,G19C,-0.473 ± 0.056
3,G19H,-0.376 ± 0.061
4,G19K,-0.445 ± 0.043
5,G19N,-0.278 ± 0.059
6,G19Q,-0.363 ± 0.043
7,K13R,-0.187 ± 0.028
8,K13W,-0.3 ± 0.037
9,K13V,-0.091 ± 0.031
10,K13A,-0.094 ± 0.032
11,K13C,-0.008 ± 0.042
12,K13E,-0.139 ± 0.035
13,K13L,-0.114 ± 0.03
14,K13Q,-0.035 ± 0.04
15,K13T,-0.218 ± 0.036
16,K13Y,-0.091 ± 0.056
17,K13F,-0.182 ± 0.048
18,K13G,-0.231 ± 0.029
19,K13I,-0.015 ± 0.047
20,K13D,-0.155 ± 0.048
21,K13P,-0.659 ± 0.046
22,K13S,-0.078 ± 0.031
23,K13H,-0.032 ± 0.054
